Measured values from the nanobody polyreactivity screen of Harvey et al. (2022).

Experiment: yeast display, Sf9 membrane polyspecificity reagent, FACS + sequencing; frameworks hold sequencing errors
In short: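 In a synthetic yeast display library (Saccharomyces cerevisiae BJ5465), nanobody expression was induced with galactose for 36–48 hours. FACS gates were set low and high (top ~1%) using anti-HA fluorescence for expression and streptavidin fluorescence for binding of the Sf9 membrane reagent. Each polyreactivity label is drawn from the gate of origin.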

Row | Sequence | polyreactivity (PSR sort gate)
1 | QVQLVESGGGLVQAGGSLRLSCAASGRTFSRYAMGWYRQAPGKERELVATINTRAGITNYPDSVKGRFTISRDNAKNTVYLQMNSLKPEDTAVYYCNRGRPGGPSWYHYVYWGQGTQVTVSS | high polyreactivity
2 | QVQLVESGGGLVQAGGSLRLSCAASGRTFSRYTMGWYRQAPGKEREFVAAIDRGGGTTYYADSVKGRFTISRDNAKNTVYLQMNSLKPEDTAVYYCAAERNYWSTQYYYWGQGTQVTVSS | high polyreactivity
3 | QVQLVESGGGLVQAGGSLRLSCAASGRTFSRYVMGWYRQAPGKERELVATISDVGNTYYADSVKGRFTISRDNAKNTVYLQMNSLKPEDTAVYYCNRVYFTSRQGQMYYWGQGTQVTVSS | high polyreactivity
4 | QVQLVESGGGLVQAGGSLRLSCAASGRTFSSNAMGWYRHAPGKERELVAAISFRGGRTFYADSVKGRFTISRDNAKNTGFLQMNSLKPEDSAVYYCNAVPETRSYDYWGQGTQVTVSS | high polyreactivity
5 | QVQLVESGGGLVQAGGSLRLSCAASGRTFSSNAMGWYRQAPGKEREFVAVISSGGSTYYADSVKGRFTISRDNAKNTVYLQMNSLKPEDTAVYYCAAAVGPSGYYYESDYWGQGTQVTVSS | high polyreactivity
6 | QVQLVESGGGLVQAGGSLRLSCAASGRTFSSNAMGWYRQAPGKERELVAAITYTGTSTYYADSVKGRFTISRDYAKNTVYLQMNSLKPEDTAVYYCAALYVQGTHTYGYWGQGTQVTVSS | high polyreactivity
7 | QVQLVESGGGLVQAGGSLRLSCAASGRTFSSNTMGWYRQAPGKERELVAAIDWSGGRTYYADSVKGRFTISRDNAKNTVYLQLNSLKPEDTEVYYCARSRSYWGIVYGRYDYWGQGTQVTVSS | high polyreactivity
8 | QVQLVESGGGLVQAGGSLRLSCAASGRTFSTYAMGWYRQAPGKERELVAGISRGGGSTYYADSVKGRFTISRDNAKNTVYLQMNSLKPEDTAVYYCAAKRPQYYVQYGYWGQGTQVTVSS | high polyreactivity
9 | QVQLVESGGGLVQAGGSLRLSCAASGRTFSVNAMGWSRQAPGKERELVAAITYSGGGTYYADSVKGRFTISRDNAKNPVYLQMNSLKPEDTAVYYCAAPVYTWYHRYDYWGQGTQVTVSS | high polyreactivity
10 | QVQLVESGGGLVQAGGSLRLSCAASGRTFSVYAMGWYRQAPGKERELVAAINRGGSTNYADSVKGRFTISRDNAKNTVYLQMNSLKPEDTAVYYCAATYYWGRKAGFDYWGQGTQVTVSS | low polyreactivity
11 | QVQLVESGGGLVQAGGSLRLSCAASGRTFSVYAMGWYRQAPGKERELVATISWGGGITYYADSVKGRFTISRDNAKNTVYLQMNSLKPEDTAVYYCAAKRSLYPYYYWGQGTQVTVSS | high polyreactivity
12 | QVQLVESGGGLVQAGGSLRLSCAASGRTFSVYTMGWYRQAPGKERELVASINWSGGRTYYADSVKGRFTISRDNAKYSVYFQMISLKPEDTAVYYCAATGWRTLFDYWGQGTQVTVSS | high polyreactivity
13 | QVQLVESGGGLVQAGGSLRLSCAASGRTFSVYTMGWYRQAPGKERELVASISRSGGRTYYADSVKGRFTISRDNAKNTVYLQMNSLKPADTAVYYCAARWYSASALKYYYWGQGTQVTVSS | high polyreactivity
14 | QVQLVESGGGLVQAGGSLRLSCAASGRTFSWNTMGWYRQAPGKERELVAAITRVGTTYYADSVKGRFTISRDNAKNTVYLQMNSLKPEDTGVYYCNARKVRYPYRWYDYWGQGTQVTVSS | high polyreactivity
15 | QVQLVESGGGLVQAGGSLRLSCAASGRTFSWYAMGWYRQAPGKEREFVATISASGGSTYYADSVKGRFTISRDNAKNTVYLQMNSLKPEDTAVYYCAADRSIRFFSPANYDYWGQGTQVTVSS | high polyreactivity
16 | QVQLVESGGGLVQAGGSLRLSCAASGRTFSWYAMGWYRQAPGKERELVAAITWSGGSTYYADSVKGRFTISRDNAKNTVYLQMNSLKPEDTAVYYCNALRYSNRRYYSTGPHDYWGQGTQVTVSS | high polyreactivity
17 | QVQLVESGGGLVQAGGSLRLSCAASGRTFSWYTMGWYRQAPGNERELVAVINYSGGSTYYADSVKGRFTISRDNAKNTVYLQMTSLKPEDTAVYYCAARNVVTGYRYDYWGQGTQVTVSS | high polyreactivity
18 | QVQLVESGGGLVQAGGSLRLSCAASGRTFSYNAMGWYRQAPGKERELVAAISSGGSTYYADSVKGRFTISRDNAKNTVYLQMNSLKPEDTAVYYCAADSPSVWGYRYDYDYWGQGTQVTVSS | low polyreactivity
19 | QVQLVESGGGLVQAGGSLRLSCAASGRTFSYNAMGWYRQAPGKERELVATISWGGGSTYYADSVKGRFTISRDNAKNTVYLQMNSQKPEDTAVFYCARVGWYAYLIDRDYWGQGSQVTVSS | high polyreactivity
20 | QVQLVESGGGLVQAGGSLRLSCAASGRTFSYNAMGWYRQAPGKERELVAVISASGGSTYYADSVKGRFTISRDNAKNTVYLQMNSLKPEDTAVYYCAKRRSPVERYDYWGQGTQVTVSS | low polyreactivity
21 | QVQLVESGGGLVQAGGSLRLSCAASGRTFSYYAMGWYRQAPGKERELVAAISWSGGSTYYADSVKGRFTISRDNAKNTVYLQMNSLKPEDTAVYYCNAPGYVWKGYDYWGQGTQVTVSS | high polyreactivity
22 | QVQLVESGGGLVQAGGSLRLSCAASGRTFSYYAMGWYRQAPGKERELVAAITDSGDSTYYADSVKGRFTISRDNAKNTVYLQMNSLKPEDTAVYYCAAEIYSYYRFYWYDYWGQGTQVTVSS | high polyreactivity

Row | Sequence | polyreactivity (PSR sort gate)
23 | QVQLVESGGGLVQAGGSLRLSCAASGRTFSYYAMGWYRQAPGKERELVAAITSSGGRTYYADSVKGRFTISRDTAKKSFYFQMYSLKPEDSAVYFFNTYTGQRDFSPFDSWGQGTQVTVTS | high polyreactivity
24 | QVQLVESGGGLVQAGGSLRLSCAASGRTFSYYAMGWYRQAPGKERELVAAITSSGTGTYYADSVKGRFTISRDNAKNTVYLQMNSLKPEDTAVYYCAVLTTSKSRVKLYYWGQGTQVTVSS | high polyreactivity
25 | QVQLVESGGGLVQAGGSLRLSCAASGRTFSYYAMGWYRQAPGKERELVASIRKSGASTYYADSVKGRFTISRDNAKNTVYLQMNSLKPEDTAVYYCNTAGWSFYSGRYDYWGQGTQVTVSS | high polyreactivity
26 | QVQLVESGGGLVQAGGSLRLSCAASGRTFSYYAMGWYRQAPGKERELVAYITSSGGSTYYADSVKGRFTISRDNAKNTVYLQMNSLKPEDTAVYYCATRGGSRARGMDYWGQGTQVTVSS | high polyreactivity
27 | QVQLVESGGGLVQAGGSLRLSCAASGRTFSYYTMGWSRQAPGKERELVAAISWSGGNTYYADSVKGRFTISRDNAKNTVYLQMNSLKPEDTAVYYCAARSVYGSYSGYDYWGQGTQVTVSS | high polyreactivity
28 | QVQLVESGGGLVQAGGSLRLSCAASGRTFSYYTMGWYRQAPGKERELVARISNRGTNTYYADSVKGRFTISRDNAKNTVYLQMNSLKPEDTAVYYCNAAFSVRHLYRYDYWGQGTQVTVSL | low polyreactivity
29 | QVQLVESGGGLVQAGGSLRLSCAASGRTFTFNAMGWYRQAPGKERELVARIDWRGITYADSVKGRFTISRDNAKNTVYLQMNSLKPEDTAVYYCAAVWLHISYYGKYDYWGQGTQVTVSS | low polyreactivity
30 | QVQLVESGGGLVQAGGSLRLSCAASGRTFTGNVMGWYRQAPGKERELVAAISRSGTSTYYADSVKGRFTISRDNAKNTVYLQMNSLKPEDTAVYYCAARRTAGYRSGEYDYWGQGTQVTVSS | high polyreactivity
31 | QVQLVESGGGLVQAGGSLRLSCAASGRTFTGYAMGWYRQAPGKEREFVAAITQRGGSTYYADSVKGRFTISRDNAKNTVYLQMNSLKPEDTAVYYCAASYLTWKRRYDYWGQGTQVTVSS | high polyreactivity
32 | QVQLVESGGGLVQAGGSLRLSCAASGRTFTIYARGWYRQAPGKERELVAAITSGGSTYYADSVKGRFTISRDNAKNTVYLQMNSLKPEDTAVYYCDRGYAVSLVSRYDYWGQGTQVTVSS | low polyreactivity
33 | QVQLVESGGGLVQAGGSLRLSCAASGRTFTKNAMGWYRQAPGKERELVAAISISGGSTYYADSVKGRFTISRDNAKNTVYLQMYSLKPEDTAVYYCAADVVTYLSYTLDYWGQGTQVTVSS | low polyreactivity
34 | QVQLVESGGGLVQAGGSLRLSCAASGRTFTKYAMGWYRQAPGKERELVAGITRRGGNTYYADSVKGRFTISRDNAKNTVYLQMNSLKPEDTAVYYCAKGYDFLRYDYWGQGTQVTVSS | high polyreactivity
35 | QVQLVESGGGLVQAGGSLRLSCAASGRTFTLYAMGWYRQAPGKERELVAAIRWSGSSTYYADSVKGRFTISRDNAKNTVYLQMNSLKPEDTAVYYCAADRAYRRFSQGAYSPWILKYGYWGQGTQVTVSS | high polyreactivity
36 | QVQLVESGGGLVQAGGSLRLSCAASGRTFTNNVMGWYRQAPGKERELVAAITSGGTNYADSVKGRFTISRDNAKNTVYLQMNSLKPEDTAVYYCATDYYDEVTIGYDYWGQGTQVTVSS | low polyreactivity
37 | QVQLVESGGGLVQAGGSLRLSCAASGRTFTNYAMGWYRQAPGKERELVASISNAGSTNYADSVKGRFTISRDNAKNTVYLQMNSLNPEDTAVYYCAADFFAGTQRTFDYWGQGTQVTVSS | high polyreactivity
38 | QVQLVESGGGLVQAGGSLRLSCAASGRTFTPNAMGWYRQAPGKDRELVAAITSTGGRTYYADSVKGRFTISRDNAKNTVYLQMNSLKPDDTAVYYCAVSYRYLRKYGYWGQGTQVTVSS | high polyreactivity
39 | QVQLVESGGGLVQAGGSLRLSCAASGRTFTQYAMGWYRQAPGKERELVAAIDYRGSRTYYADSVKGRFTISRDNAKNTVYLQMNSLKPEDTAFYYCNTVHRFGTYDYWGQGTQVTVSS | high polyreactivity
40 | QVQLVESGGGLVQAGGSLRLSCAASGRTFTRNAMGWYRQAPGKERELVASITNGVSTNYADSVKGRFTISRDNAKNTVYLQMNSLKPEDTAVYYCNKGPLISYAYRYYQPYDYWGQGTQVTVSS | low polyreactivity
41 | QVQLVESGGGLVQAGGSLRLSCAASGRTFTRYAMGWYRQAPGKERELVAAISWSGGSTYYADSVKGRFTISRDNAKNSVYLQMNSLKPEDTAVYYCNAYYYYPEFNYWGLGTQVTVSS | high polyreactivity
42 | QVQLVESGGGLVQAGGSLRLSCAASGRTFTRYAMGWYRQAPGKERELVASISNGGNTYYADSVKGRFTISRDYAKNTVYLQMNSLKPEDTAVYYCAAKWKNSRPDWRGYWGQGTQVTVSS | high polyreactivity
43 | QVQLVESGGGLVQAGGSLRLSCAASGRTFTRYAMGWYRQAPGKERELVASITTGGRTYYADSVKGRFTISRDNAKNTVYLQMNSLKPEDTAVYYCAARTYGGFEYWGQGTQVTVSS | high polyreactivity
